Experimental data reported in article PMC6892922.

B1: Ehg1-Cub-LV [S. cerevisiae] / NubG-Bap2 [S. cerevisiae] (parent)
chain 1: MRSFVTNNDIPVGYVTPKFPSLYWPINNSKYNTAFLYYISDIWKFSLYWTLIFNGAFYVTAGVYASLTHRKKAGSVWIFVMYVLYGGVQGLTTGTVMGFLIGAIYRSGLFSMSTWVPLCCAVVQILFDVVLSYSMVGSVM
chain 2: MLSSEDFGSSGKKETSPDSISIRSFSAGNNFQSSSSEKTYSKQKSGSDKLIHRFADSFKRAEGSTTRTKQINENTSDLEDGVESITSDSKLKKSMKSRHVVMMSLGTGIGTGLLVANAKGLHYGGPAALIIGYILVSFVTYFMIQAAGEMAVTYPTLPANFNAYSSIFISKSFGFATVWLYCFQWLTVLPLELITASMTIQFWNDKINPDIYILIFYVFLVFIHFFGVKAYGETEFIFNCCKILMIAGFIILSIVINCGGAGNDGYIGATYWHNPGAFAGDTSIGRFKNVCYILVTAYFSFGGMELFALSVQEQSNPRKSTPVAAKRSIYRIVVIYLLTMILIGFNVPYNDDQLMGAGGSATHASPYVLAASIHGVKIVPHIINAVILISVVSVANSSLYAGPRLICSLAQQGYAPKFLDYVDREGRPLRALIVCCVFGVIAFVAASSKEEIVFTWLAAIAGLSELFTWTSIMLSHLRFRQAMKVQGRSLDELGYKATTGIWGSIYGVFFNILVFVAQFWVALAPLGNGGKCDAESFFQNYLAFPIWLAFYFGYMVYNRDFTLLNPLDKIDLDFHRRIYDPELMRQEDEENKEKLRNMSLMRKAYHFWC
B2: Ehg1-Cub-LV [S. cerevisiae] / NubG-Hip1 [S. cerevisiae] (parent)
chain 1: B1 chain 1
chain 2: MPRNPLKKEYWADVVDGFKPATSPAFENEKESTTFVTELTSKTDSAFPLSSKDSPGINQTTNDITSSDRFRRNEDTEQEDINNTNLSKDLSVRHLLTLAVGGAIGTGLYVNTGAALSTGGPASLVIDWVIISTCLFTVINSLGELSAAFPVVGGFNVYSMRFIEPSFAFAVNLNYLAQWLVLLPLELVAASITIKYWNDKINSDAWVAIFYATIALANMLDVKSFGETEFVLSMIKILSIIGFTILGIVLSCGGGPHGGYIGGKYWHDPGAFVGHSSGTQFKGLCSVFVTAAFSYSGIEMTAVSAAESKNPRETIPKAAKRTFWLITASYVTILTLIGCLVPSNDPRLLNGSSSVDAASSPLVIAIENGGIKGLPSLMNAIILIAVVSVANSAVYACSRCMVAMAHIGNLPKFLNRVDKRGRPMNAILLTLFFGLLSFVAASDKQAEVFTWLSALSGLSTIFCWMAINLSHIRFRQAMKVQERSLDELPFISQTGVKGSWYGFIVLFLVLIASFWTSLFPLGGSGASAESFFEGYLSFPILIVCYVGHKLYTRNWTLMVKLEDMDLDTGRKQVDLTLRREEMRIERETLAKRSFVTRFLHFWC
B3: Ehg1-Cub-LV [S. cerevisiae] / NubG-Fur4 [S. cerevisiae] (parent)
chain 1: B1 chain 1
chain 2: MPDNLSLHLSGSSKRLNSRQLMESSNETFAPNNVDLEKEYKSSQSNITTEVYEASSFEEKVSSEKPQYSSFWKKIYYEYVVVDKSILGVSILDSFMYNQDLKPVEKERRVWSWYNYCYFWLAECFNINTWQIAATGLQLGLNWWQCWITIWIGYGFVGAFVVLASRVGSAYHLSFPISSRASFGIFFSLWPVINRVVMAIVWYSVQAYIAATPVSLMLKSIFGKDLQDKIPDHFGSPNATTYEFMCFFIFWAASLPFLLVPPHKIRHLFTVKAVLVPFASFGFLIWAIRRAHGRIALGSLTDVQPHGSAFSWAFLRSLMGCMANFSTMVINAPDFSRFSKNPNSALWSQLVCIPFLFSITCLIGILVTAAGYEIYGINYWSPLDVLEKFLQTTYNKGTRAGVFLISFVFAVAQLGTNISANSLSCGTDMSAIFPKFINIKRGSLFCAAMALCICPWNLMATSSKFTMALSAYAIFLSSIAGVVCSDYFVVRRGYIKLTHIYSHQKGSFYMYGNRFGINWRALAAYLCGVAPCLPGFIAEVGAPAIKVSDGAMKLYYLSYWVGYGLSFSSYTALCYFFPVPGCPVNNIIKDKGWFQRWANVDDFEEEWKDTIERDDLVDDNISVYEHEHEKTFI

Variants of: B1
Assay: split-ubiquitin yeast two-hybrid (growth of strain NMY51)
Details: with NubG-Bap2 [S. cerevisiae]; sub-panel Ehg1–Bap2; SC–His medium; 24 h starting at OD600 0.1; NubG-vector control est. 0.46; parent: 1.3; read off a plot

response [OD600] | Variant
0.72 | chain 1 MRSFVTNNDIPVGYVTPKAPSLYWPINNSKYNTAFLYYISDIWKFSLYWTLIFNGAFYVTAGVYASLTHRKKAGSVWIFVMYVLYGGVQGLTTGTVMGFLIGAIYRSGLFSMSTWVPLCCAVVQILFDVVLSYSMVGSVM [chain 1 F19A]
0.5 | chain 1 MRSFVTNNDIPVGYVTAKFASLYWPINNSKYNTAFLYYISDIWKFSLYWTLIFNGAFYVTAGVYASLTHRKKAGSVWIFVMYVLYGGVQGLTTGTVMGFLIGAIYRSGLFSMSTWVPLCCAVVQILFDVVLSYSMVGSVM [chain 1 P17A P20A]

Same assay, conditions: with NubG-Bap2 [S. cerevisiae]; sub-panel Ehg1–Bap2; SC–His–Ade medium; 24 h starting at OD600 0.1; NubG-vector control est. 0.17; parent: 0.45; read off a plot

response [OD600] | Variant
0.27 | chain 1 MRSFVTNNDIPVGYVTPKAPSLYWPINNSKYNTAFLYYISDIWKFSLYWTLIFNGAFYVTAGVYASLTHRKKAGSVWIFVMYVLYGGVQGLTTGTVMGFLIGAIYRSGLFSMSTWVPLCCAVVQILFDVVLSYSMVGSVM [chain 1 F19A]
0.17 | chain 1 MRSFVTNNDIPVGYVTAKFASLYWPINNSKYNTAFLYYISDIWKFSLYWTLIFNGAFYVTAGVYASLTHRKKAGSVWIFVMYVLYGGVQGLTTGTVMGFLIGAIYRSGLFSMSTWVPLCCAVVQILFDVVLSYSMVGSVM [chain 1 P17A P20A]

Variants of: B2
Assay: as above
Details: with NubG-Hip1 [S. cerevisiae]; sub-panel Ehg1–Hip1; SC–His medium; 24 h starting at OD600 0.1; NubG-vector control est. 0.48; parent: 1.8; read off a plot

response [OD600] | Variant
1.5 | chain 1 MRSFVTNNDIPVGYVTPKAPSLYWPINNSKYNTAFLYYISDIWKFSLYWTLIFNGAFYVTAGVYASLTHRKKAGSVWIFVMYVLYGGVQGLTTGTVMGFLIGAIYRSGLFSMSTWVPLCCAVVQILFDVVLSYSMVGSVM [chain 1 F19A]
1.3 | chain 1 MRSFVTNNDIPVGYVTAKFASLYWPINNSKYNTAFLYYISDIWKFSLYWTLIFNGAFYVTAGVYASLTHRKKAGSVWIFVMYVLYGGVQGLTTGTVMGFLIGAIYRSGLFSMSTWVPLCCAVVQILFDVVLSYSMVGSVM [chain 1 P17A P20A]

Same assay, conditions: with NubG-Hip1 [S. cerevisiae]; sub-panel Ehg1–Hip1; SC–His–Ade medium; 24 h starting at OD600 0.1; NubG-vector control est. 0.20; parent: 0.73; read off a plot

response [OD600] | Variant
0.75 | chain 1 MRSFVTNNDIPVGYVTPKAPSLYWPINNSKYNTAFLYYISDIWKFSLYWTLIFNGAFYVTAGVYASLTHRKKAGSVWIFVMYVLYGGVQGLTTGTVMGFLIGAIYRSGLFSMSTWVPLCCAVVQILFDVVLSYSMVGSVM [chain 1 F19A]
0.5 | chain 1 MRSFVTNNDIPVGYVTAKFASLYWPINNSKYNTAFLYYISDIWKFSLYWTLIFNGAFYVTAGVYASLTHRKKAGSVWIFVMYVLYGGVQGLTTGTVMGFLIGAIYRSGLFSMSTWVPLCCAVVQILFDVVLSYSMVGSVM [chain 1 P17A P20A]

Variants of: B3
Assay: as above
Details: with NubG-Fur4 [S. cerevisiae]; sub-panel Ehg1–Fur4; SC–His medium; 24 h starting at OD600 0.1; NubG-vector control est. 0.40; parent: 1.8; read off a plot

response [OD600] | Variant
0.45 | chain 1 MRSFVTNNDIPVGYVTAKFASLYWPINNSKYNTAFLYYISDIWKFSLYWTLIFNGAFYVTAGVYASLTHRKKAGSVWIFVMYVLYGGVQGLTTGTVMGFLIGAIYRSGLFSMSTWVPLCCAVVQILFDVVLSYSMVGSVM [chain 1 P17A P20A]
0.65 | chain 1 MRSFVTNNDIPVGYVTPKAPSLYWPINNSKYNTAFLYYISDIWKFSLYWTLIFNGAFYVTAGVYASLTHRKKAGSVWIFVMYVLYGGVQGLTTGTVMGFLIGAIYRSGLFSMSTWVPLCCAVVQILFDVVLSYSMVGSVM [chain 1 F19A]

Same assay, conditions: with NubG-Fur4 [S. cerevisiae]; sub-panel Ehg1–Fur4; SC–His–Ade medium; 24 h starting at OD600 0.1; NubG-vector control est. 0.16; parent: 0.95; read off a plot

response [OD600] | Variant
0.17 | chain 1 MRSFVTNNDIPVGYVTAKFASLYWPINNSKYNTAFLYYISDIWKFSLYWTLIFNGAFYVTAGVYASLTHRKKAGSVWIFVMYVLYGGVQGLTTGTVMGFLIGAIYRSGLFSMSTWVPLCCAVVQILFDVVLSYSMVGSVM [chain 1 P17A P20A]
0.22 | chain 1 MRSFVTNNDIPVGYVTPKAPSLYWPINNSKYNTAFLYYISDIWKFSLYWTLIFNGAFYVTAGVYASLTHRKKAGSVWIFVMYVLYGGVQGLTTGTVMGFLIGAIYRSGLFSMSTWVPLCCAVVQILFDVVLSYSMVGSVM [chain 1 F19A]
